Test results: patent US20120269821A1

Columns and labels:
Experiment in all cases: cell-based or functional assay
[1] = molecular target: B.BG1168 envelope (HIV-1)
B.SF162 envelope (HIV-1) = molecular target: B.SF162 envelope (HIV-1)
C.TV-1 envelope (HIV-1) = molecular target: C.TV-1 envelope (HIV-1)
[2] = molecular target: CAP206.1.B5 envelope (HIV-1)
[3] = molecular target: Du156.12 envelope (HIV-1)
Du422.1 envelope (HIV-1) = molecular target: Du422.1 envelope (HIV-1)
[4] = molecular target: QH0692.42 envelope (HIV-1)
[5] = molecular target: SC422661.8 envelope (HIV-1)
TRO.11 envelope (HIV-1) = molecular target: TRO.11 envelope (HIV-1)
[6] = molecular target: ZM197M.PB7 envelope (HIV-1)
[7] = molecular target: COT6.15 envelope A662G (HIV-1)
[8] = molecular target: COT6.15 envelope D664A (HIV-1)
[9] = molecular target: COT6.15 envelope D674A (HIV-1)
[10] = molecular target: COT6.15 envelope D674N (HIV-1)
[11] = molecular target: COT6.15 envelope D674S (HIV-1)
[12] = molecular target: COT6.15 envelope F673A (HIV-1)
[13] = molecular target: COT6.15 envelope I675A (HIV-1)
[14] = molecular target: COT6.15 envelope K667A (HIV-1)
[15] = molecular target: COT6.15 envelope K677A (HIV-1)
[16] = molecular target: COT6.15 envelope L663A (HIV-1)
[17] = molecular target: COT6.15 envelope L669A (HIV-1)
[18] = molecular target: COT6.15 envelope L679A (HIV-1)
[19] = molecular target: COT6.15 envelope N668A (HIV-1)
[20] = molecular target: COT6.15 envelope S665A (HIV-1)
[21] = molecular target: COT6.15 envelope S671A (HIV-1)
[22] = molecular target: COT6.15 envelope T676A (HIV-1)
[23] = molecular target: COT6.15 envelope W666A (HIV-1)
[24] = molecular target: COT6.15 envelope W670A (HIV-1)
[25] = molecular target: COT6.15 envelope W672A (HIV-1)
[26] = molecular target: COT6.15 envelope W678A (HIV-1)
[27] = molecular target: COT6.15 envelope W680A (HIV-1)
[28] = molecular target: COT6.15 envelope, wild type (HIV-1)

recombinant 2F5 IgG antibody
50% neutralization level [1]: 1.17 µg/mL | 50% neutralization level (B.SF162 envelope (HIV-1)): 0.3 µg/mL | 50% neutralization level (C.TV-1 envelope (HIV-1)): 34.5 µg/mL

mAb 2F5 (Polymun Scientific) (antibody)
50% neutralization level [1]: 0.32 µg/mL | 50% neutralization level (B.SF162 envelope (HIV-1)): 0.1 µg/mL | 50% neutralization level (C.TV-1 envelope (HIV-1)): 10.9 µg/mL | IC50 in TZM-bl cells [2]: > 25000 µg/mL | IC50 in TZM-bl/FcγRI cells [2]: > 25000 µg/mL | IC50 in TZM-bl cells [3]: > 25000 µg/mL | IC50 in TZM-bl/FcγRI cells [3]: > 25000 µg/mL | IC50 in TZM-bl cells (Du422.1 envelope (HIV-1)): > 25000 µg/mL | IC50 in TZM-bl/FcγRI cells (Du422.1 envelope (HIV-1)): > 25000 µg/mL | IC50 in TZM-bl cells [4]: 1810 µg/mL | IC50 in TZM-bl/FcγRI cells [4]: < 10 µg/mL | IC50 in TZM-bl/FcγRI cells [5]: < 10 µg/mL | IC50 in TZM-bl cells (TRO.11 envelope (HIV-1)): > 25000 µg/mL | IC50 in TZM-bl cells [6]: > 25000 µg/mL | IC50 in TZM-bl/FcγRI cells [6]: 60 µg/mL

mAb 4E10 (antibody)
IC50 in TZM-bl cells [2]: 0.1 | IC50 in TZM-bl/FcγRI cells [2]: < 10 µg/mL | IC50, pseudovirus neutralization [7]: 0.12 µg/mL | Ratio (mutant IC50)/(wild-type IC50) [7]: 0.1 | IC50, pseudovirus neutralization [8]: 0.77 µg/mL | Ratio (mutant IC50)/(wild-type IC50) [8]: 0.9 | IC50, pseudovirus neutralization [9]: 1.4 µg/mL | Ratio (mutant IC50)/(wild-type IC50) [9]: 1.6 | IC50, pseudovirus neutralization [10]: 0.33 µg/mL | Ratio (mutant IC50)/(wild-type IC50) [10]: 0.4 | IC50, pseudovirus neutralization [11]: 2.49 µg/mL | Ratio (mutant IC50)/(wild-type IC50) [11]: 2.8 | IC50, pseudovirus neutralization [12]: > 25 µg/mL | Ratio (mutant IC50)/(wild-type IC50) [12]: > 25 | IC50, pseudovirus neutralization [13]: 0.04 µg/mL | Ratio (mutant IC50)/(wild-type IC50) [13]: 0 | IC50, pseudovirus neutralization [14]: 0.05 µg/mL | Ratio (mutant IC50)/(wild-type IC50) [14]: 0.1 | IC50, pseudovirus neutralization [15]: 0.05 µg/mL | Ratio (mutant IC50)/(wild-type IC50) [15]: 0.1 | IC50, pseudovirus neutralization [16]: 0.02 µg/mL | Ratio (mutant IC50)/(wild-type IC50) [16]: 0 | IC50, pseudovirus neutralization [17]: 0.05 µg/mL | Ratio (mutant IC50)/(wild-type IC50) [17]: 0.1 | IC50, pseudovirus neutralization [18]: 0.09 µg/mL | Ratio (mutant IC50)/(wild-type IC50) [18]: 0.1 | IC50, pseudovirus neutralization [19]: 1.3 µg/mL | Ratio (mutant IC50)/(wild-type IC50) [19]: 1.4 | IC50, pseudovirus neutralization [20]: 0.14 µg/mL | Ratio (mutant IC50)/(wild-type IC50) [20]: 0.2 | IC50, pseudovirus neutralization [21]: 0.04 µg/mL | Ratio (mutant IC50)/(wild-type IC50) [21]: 0 | IC50, pseudovirus neutralization [22]: 21.8 µg/mL | Ratio (mutant IC50)/(wild-type IC50) [22]: 24.2 | IC50, pseudovirus neutralization [23]: 0.51 µg/mL | Ratio (mutant IC50)/(wild-type IC50) [23]: 0.6 | IC50, pseudovirus neutralization [24]: 0.11 µg/mL | Ratio (mutant IC50)/(wild-type IC50) [24]: 0.1 | IC50, pseudovirus neutralization [25]: > 25 µg/mL | Ratio (mutant IC50)/(wild-type IC50) [25]: > 25 | IC50, pseudovirus neutralization [26]: 0.05 µg/mL | Ratio (mutant IC50)/(wild-type IC50) [26]: 0.1 | IC50, pseudovirus neutralization [27]: 10.9 µg/mL | Ratio (mutant IC50)/(wild-type IC50) [27]: 12.1 | IC50, pseudovirus neutralization [28]: 0.9 µg/mL | IC50 in TZM-bl cells [3]: 200 µg/mL | IC50 in TZM-bl/FcγRI cells [3]: < 10 µg/mL | IC50 in TZM-bl cells (Du422.1 envelope (HIV-1)): 300 µg/mL | IC50 in TZM-bl/FcγRI cells (Du422.1 envelope (HIV-1)): < 10 µg/mL | IC50 in TZM-bl cells [4]: 6500 µg/mL | IC50 in TZM-bl/FcγRI cells [4]: 110 µg/mL | IC50 in TZM-bl/FcγRI cells [5]: < 10 µg/mL | IC50 in TZM-bl cells (TRO.11 envelope (HIV-1)): 300 µg/mL | IC50 in TZM-bl cells [6]: 1100 µg/mL | IC50 in TZM-bl/FcγRI cells [6]: < 10 µg/mL

mAb Z13e1 (antibody)
IC50 in TZM-bl cells [3]: 4700 µg/mL | IC50 in TZM-bl cells [4]: 46000 µg/mL | IC50 in TZM-bl cells (TRO.11 envelope (HIV-1)): 13300 µg/mL | IC50 in TZM-bl cells [6]: 30
